Measurements published in the supplement of paper PMC10567573.

B1: SNX8 (parent)
chain: LHQETQLIHVYLPLTSHILRAFVN

Variants of: B1
Assay: protein stability index of a GFP-peptide fusion (GPS, HEK-293T) (PSI 1-6); higher = more stable
Conditions: c terminus: a fixed tail appended
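Also: lentivirally expressed fusions sorted by FACS into six bins by GFP to DsRed ratio, PSI derived from sequencing read proportions per bin multiplied by bin number.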

Protein stability index: each site, then its substitutions
I18: Q 2.27, D 2.65, M 1.88, H 2.63, W 2.33, S 3.95, R 2.44, T 2.89, F 1.93, V 3.55, Y 2.39, A 1.85, C 3.75, G 1.71, N 1.79, K 1.97, P 3.99, L 3.11
L14: Q 3.75, P 2.64, H 2.13, D 2.72, A 2.98, T 2.29, Y 1.58, F 1.31, G 3.49, C 3.23, V 3.59, W 1.8, K 3.14, M 2.41, N 4.27, S 2, R 2.49
Y11: N 2.81, V 1.99, G 2.29, C 3.22, F 2.14, S 1.91, R 1.86, A 2.63, T 1.89, K 2.95, P 2.78, L 2.05, Q 3.1, D 1.47, M 3.64
L19: C 2.66, T 1.84, P 3.45, W 1.57, F 3.61, A 2.99, N 1.99, G 3.75, H 2.24, I 3.22, E 2.23, K 2.47, D 1.52, Y 3.67, Q 5.08, S 2.3, V 4.01
T15: M 1.58, C 2.46, Y 1.79, Q 1.75, N 3.74, W 2.9, F 1.58, K 3.35, P 2.3, L 1.86, R 2.25, I 2.85, D 3.4, A 2.23, G 1.2, H 3.58, V 4.03
S16: C 2.36, I 1.47, Y 2.08, E 2.16, A 1.94, K 2.77, Q 2.5, N 2.52, H 1.82, R 2.83, L 2.08, M 2, V 1.81, W 2.31
H9: V 3.08, Y 3.11, W 2.31
L12: N 2.08, H 3.23, C 2.52, V 1.91, D 2.19, S 1.7, M 2.71, F 2.58, G 3.44, Q 3.42, Y 3.18, W 3.2, T 2.49, R 2.48, E 1.83, K 2.29, P 2.21
R20: C 2.94, A 3.61
P13: H 1.38, Q 2.68, D 2.7, M 2.55, L 3.99, V 1.85, W 3.14, A 3.59, Y 1.95, K 1.72, R 2.29, T 2.91, I 1.9, S 3
H17: T 1.85, C 1.58, W 3.19, G 1.77, Q 2.97, D 2.58, S 3.54, A 2.06, P 2.34, R 2.42, L 1.69, V 1.92, Y 2.6, E 2.75, F 3.82, N 2.47, M 2.52, I 2.46
V10: A 1.19, N 1.88, H 1.66, P 1.76, G 1.51, D 1.87, W 2.2, Y 2.24, S 2.33, T 1.73, Q 1.71, M 2.22, K 1.23, E 2.87, R 2.21
